Assay results published in US20250206818A1 (AGENUS, published 2025).
Residue numbers refer to the chain shown, from its start. Names and notes keep the numbering of the source.

T1: recombinant human LAG-3 (human, UniProt P18627 23-450, limits assumed)
T1 sequence (looked up): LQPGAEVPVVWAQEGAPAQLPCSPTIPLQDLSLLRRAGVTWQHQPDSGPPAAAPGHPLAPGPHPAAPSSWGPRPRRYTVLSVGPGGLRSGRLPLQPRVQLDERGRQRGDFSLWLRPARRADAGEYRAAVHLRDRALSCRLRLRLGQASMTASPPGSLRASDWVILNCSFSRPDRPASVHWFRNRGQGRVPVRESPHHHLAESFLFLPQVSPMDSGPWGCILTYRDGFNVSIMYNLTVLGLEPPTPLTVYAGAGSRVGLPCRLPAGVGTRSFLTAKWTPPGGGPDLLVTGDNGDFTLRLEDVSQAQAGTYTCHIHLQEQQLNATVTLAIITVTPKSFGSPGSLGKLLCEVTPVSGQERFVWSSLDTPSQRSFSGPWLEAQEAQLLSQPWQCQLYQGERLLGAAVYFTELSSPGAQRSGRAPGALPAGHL

T2: human LAG-3 (human, UniProt P18627 23-450, limits assumed)
T2 construct: Selections used human LAG-3-Fc, human LAG-3-6His, a 30 aa LAG-3 peptide and/or cells with cynomolgus LAG-3; also called CD223
T2 sequence (looked up): T1 sequence (looked up)

B1: P13B02-12 (antibody, IgG1, V domains shown)
VH: QVQLVQSGAEVKKPGASVKVSCKASGFNIKDTYIHWVRQAPGQGLEWMGEIDPANDNTKYDPKFQGRVTITADTSSNTVYMELSSLRSEDTAVYYCATYYYRYDVGGFDYWGQGTLVTVSS
VL: EIVLTQSPGTLSLSPGERATLSCSVSSSISSSNLHWYQQKPGQAPRLLIYGTSNLASGIPDRFSGSGSGTSYTLTISRLEPEDFAVYYCQQWSSYPFTFGQGTKVEIK
notes: Humanized; generated as full length IgG1
B2: P13B02-17 (antibody, IgG1, V domains shown)
VH: B1 VH with L4M, V5K, K23T
VL: B1 VL
notes: as for B1
B3: P13B02-19 (antibody, IgG1, V domains shown)
VH: B1 VH with L4M, V5K, K23T
VL: B1 VL with V3L, Y37F, L48W, I59V
notes: as for B1
B4: P13B02-33 (antibody, IgG1, V domains shown)
VH: B1 VH with L4M, V5K, K23T, S76T, N77S, R102K
VL: B1 VL with S71D, Y72F
notes: as for B1
B5: P13B02-36 (antibody, IgG1, V domains shown)
VH: B1 VH with R102K
VL: B1 VL with S71D, Y72F
notes: as for B1
B6: P13B02-13 (antibody, IgG1, V domains shown)
VH: B1 VH
VL: B1 VL with V3L, Y37F
notes: as for B1
B7: P13B02-01 (antibody, IgG1, V domains shown)
VH: B1 VH with I70M, A72R, S76T, N77S, T98R
VL: B1 VL with S71D, Y72F
notes: as for B1
B8: P13B02-03 (antibody, IgG1, V domains shown)
VH: B1 VH with I70M, A72R, S76T, N77S, T98R
VL: B1 VL with V3L, Y37F
notes: as for B1
B9: P13B02-22 (antibody, IgG1, V domains shown)
VH: B1 VH with L4M, V5K, K12V, K23T, M48I, M81L, E82Q
VL: B1 VL
notes: as for B1
B10: P13B02-09 (antibody, IgG1, V domains shown)
VH: B1 VH with S76T, N77S
VL: B1 VL with V3L, Y37F, L48W, I59V
notes: as for B1
B11: P13B02-10 (antibody, IgG1, V domains shown)
VH: B1 VH with S76T, N77S
VL: B1 VL with V3L, S22T, Y37F, A44S, L48W, I59V
notes: as for B1
B12: P13B02-21 (antibody, IgG1, V domains shown)
VH: B1 VH with L4M, V5K, K12V, K23T, M48I, M81L, E82Q
VL: B1 VL with S71D, Y72F
notes: as for B1
B13: P13B02-29 (antibody, IgG1, V domains shown)
VH: B1 VH with K23T, S76T, N77S, R102K
VL: B1 VL with S71D, Y72F
notes: as for B1
B14: P13B02-32 (antibody, IgG1, V domains shown)
VH: B1 VH with L4M, V5K, S76T, N77S, R102K
VL: B1 VL with S71D, Y72F
notes: as for B1
B15: P13B02-23 (antibody, IgG1, V domains shown)
VH: B1 VH with L4M, V5K, K12V, K23T, M48I, M81L, E82Q
VL: B1 VL with V3L, Y37F
notes: as for B1
B16: P13B02-37 (antibody, IgG1, V domains shown)
VH: B1 VH with L4M, V5K, K23T, R102K
VL: B1 VL with S71D, Y72F
notes: as for B1
B17: P13B02-14 (antibody, IgG1, V domains shown)
VH: B1 VH
VL: B1 VL with V3L, Y37F, L48W, I59V
notes: as for B1
B18: P13B02-24 (antibody, IgG1, V domains shown)
VH: B1 VH with L4M, V5K, K12V, K23T, M48I, M81L, E82Q
VL: B1 VL with V3L, Y37F, L48W, I59V
notes: as for B1
B19: P13B02-08 (antibody, IgG1, V domains shown)
VH: B1 VH with S76T, N77S
VL: B1 VL with V3L, Y37F
notes: as for B1
B20: P13B02-18 (antibody, IgG1, V domains shown)
VH: B1 VH with L4M, V5K, K23T
VL: B1 VL with V3L, Y37F
notes: as for B1
B21: P13B02-11 (antibody, IgG1, V domains shown)
VH: B1 VH
VL: B1 VL with S71D, Y72F
notes: as for B1
B22: P13B02-20 (antibody, IgG1, V domains shown)
VH: B1 VH with L4M, V5K, K23T
VL: B1 VL with V3L, S22T, Y37F, A44S, L48W, I59V
notes: as for B1
B23: P13B02-34 (antibody, IgG1, V domains shown)
VH: B1 VH with V5K, S76T, N77S, R102K
VL: B1 VL with S71D, Y72F
notes: as for B1
B24: P13B02-04 (antibody, IgG1, V domains shown)
VH: B1 VH with I70M, A72R, S76T, N77S, T98R
VL: B1 VL with V3L, Y37F, L48W, I59V
notes: as for B1
B25: P13B02-35 (antibody, IgG1, V domains shown)
VH: B1 VH with V5K, K23T, S76T, N77S, R102K
VL: B1 VL with S71D, Y72F
notes: as for B1
B26: P13B02-28 (antibody, IgG1, V domains shown)
VH: B1 VH with S76T, N77S, R102K
VL: B1 VL with S71D, Y72F
notes: as for B1
B27: P13B02-05 (antibody, IgG1, V domains shown)
VH: B1 VH with I70M, A72R, S76T, N77S, T98R
VL: B1 VL with V3L, S22T, Y37F, A44S, L48W, I59V
notes: as for B1
B28: P13B02-31 (antibody, IgG1, V domains shown)
VH: B1 VH with L4M, K23T, S76T, N77S, R102K
VL: B1 VL with S71D, Y72F
notes: as for B1
B29: P13B02-15 (antibody, IgG1, V domains shown)
VH: B1 VH
VL: B1 VL with V3L, S22T, Y37F, A44S, L48W, I59V
notes: as for B1
B30: P13B02-30 (antibody, V domains shown)
VH: B1 VH with L4M, S76T, N77S, R102K
VL: B1 VL with S71D, Y72F
notes: Humanized full length IgG1; made in three versions (G1m17; G1m17 N297A; G1m3 N297A)
B31: P13B02-02 (antibody, IgG1, V domains shown)
VH: B1 VH with I70M, A72R, S76T, N77S, T98R
VL: B1 VL
notes: as for B1
B32: P05E03 Fab (Fab, V domains shown)
VH: QVQLKESGAELVKPGASVELSCTASGFNIRDTYMYWVKQRPEQGLEWIGRIDPANGNTKFDPKFQDRATMTADTSSNTAYLQLSSLTSEDTAVYYCTTYFYRYDVGGFDYWGQGTTLTVS
VL: EIVLTQSPALMAASPGEKVTITCSVSSSISSSNLHWYQQKSGTSPKLWIYGTSNLASGVPVRFSGSGSGTSYSLTISSMEAEDAATYYCQQWSSYPFTFGSGTKLEIK
notes: Murine Fab, periplasmic extract
B33: P05E01 Fab (Fab, V domains shown)
VH: DVQLVESGAELVKPGASVKLSCTASGFTIKDTYIHWVKQRPEQGLEWIGEIDPANGNTKYDPKFQGKATITADTSSNTAYLQLSSLTSEDTAVYYCATYYYRYDVGGFDYWGQGTTLTVS
VL: B32 VL with E1D, Y37F, S78N, S93N, F97L, S101A, I107L
notes: as for B32

What was measured:
recombinant human LAG-3 = target: T1, recombinant human LAG-3; assay: surface plasmon resonance (data not shown)
human LAG-3 = target: T2, human LAG-3; assay: Fab phage display selection; periplasmic extracts screened by ELISA or flow cytometry
Description: Anti-LAG-3 antibodies were identified by generation and selection of an immunized Fab phage display library. […] Per mouse, a Fab library was then generated by random-primed cDNA using total RNA as a template to amplify variable regions from mouse antibody genes. Heavy and kappa chain amplicons were combined and cloned into phagemid vectors. […] The 30 amino acid human LAG-3 peptide is a biotinylated peptide comprising the amino acid sequence of […] (SEQ ID NO: 199). Periplasmic extracts of selected Fab clones were then screened by ELISA or flow cytometry. Antibody sequencing and off-rate analysis were then performed on anti-LAG-3 Fabs.

Binder	binding result (recombinant human LAG-3)	binding result (human LAG-3)
B1	binds	–
B2	binds	–
B3	binds	–
B4	binds	–
B5	binds	–
B6	binds	–
B7	binds	–
B8	binds	–
B9	binds	–
B10	binds	–
B11	binds	–
B12	binds	–
B13	binds	–
B14	binds	–
B15	binds	–
B16	binds	–
B17	binds	–

Binder	binding result (recombinant human LAG-3)	binding result (human LAG-3)
B18	binds	–
B19	binds	–
B20	binds	–
B21	binds	–
B22	binds	–
B23	binds	–
B24	binds	–
B25	binds	–
B26	binds	–
B27	binds	–
B28	binds	–
B29	binds	–
B30	binds	–
B31	binds	–
B32	–	binds
B33	–	binds
